{
  "source": "patent US20250283063",
  "about": "“NOVEL CRISPR-CAS12I SYSTEMS AND USES THEREOF” (HUIDAGENE THERAPEUTICS (SINGAPORE) PTE. LTD., published 2025)",
  "binders": {"B1": {"name": "TTR.2 crRNA ; TTR ON.1 (ssRNA ; dsDNA)", "RNA": "AUGACUCAGAAAUGUGUCCCCAGUUGACACUAGAAGGGAUAUACAAAGUGGA", "DNA 1": "TTTGTAGAAGGGATATACAAAGTGGA", "DNA 2": "TCCACTTTGTATATCCCTTCTACAAA"}},
  "molecular_target": "T1, xCas12i v6.1 (N243R,E336R,V880R)",
  "T1 chain": "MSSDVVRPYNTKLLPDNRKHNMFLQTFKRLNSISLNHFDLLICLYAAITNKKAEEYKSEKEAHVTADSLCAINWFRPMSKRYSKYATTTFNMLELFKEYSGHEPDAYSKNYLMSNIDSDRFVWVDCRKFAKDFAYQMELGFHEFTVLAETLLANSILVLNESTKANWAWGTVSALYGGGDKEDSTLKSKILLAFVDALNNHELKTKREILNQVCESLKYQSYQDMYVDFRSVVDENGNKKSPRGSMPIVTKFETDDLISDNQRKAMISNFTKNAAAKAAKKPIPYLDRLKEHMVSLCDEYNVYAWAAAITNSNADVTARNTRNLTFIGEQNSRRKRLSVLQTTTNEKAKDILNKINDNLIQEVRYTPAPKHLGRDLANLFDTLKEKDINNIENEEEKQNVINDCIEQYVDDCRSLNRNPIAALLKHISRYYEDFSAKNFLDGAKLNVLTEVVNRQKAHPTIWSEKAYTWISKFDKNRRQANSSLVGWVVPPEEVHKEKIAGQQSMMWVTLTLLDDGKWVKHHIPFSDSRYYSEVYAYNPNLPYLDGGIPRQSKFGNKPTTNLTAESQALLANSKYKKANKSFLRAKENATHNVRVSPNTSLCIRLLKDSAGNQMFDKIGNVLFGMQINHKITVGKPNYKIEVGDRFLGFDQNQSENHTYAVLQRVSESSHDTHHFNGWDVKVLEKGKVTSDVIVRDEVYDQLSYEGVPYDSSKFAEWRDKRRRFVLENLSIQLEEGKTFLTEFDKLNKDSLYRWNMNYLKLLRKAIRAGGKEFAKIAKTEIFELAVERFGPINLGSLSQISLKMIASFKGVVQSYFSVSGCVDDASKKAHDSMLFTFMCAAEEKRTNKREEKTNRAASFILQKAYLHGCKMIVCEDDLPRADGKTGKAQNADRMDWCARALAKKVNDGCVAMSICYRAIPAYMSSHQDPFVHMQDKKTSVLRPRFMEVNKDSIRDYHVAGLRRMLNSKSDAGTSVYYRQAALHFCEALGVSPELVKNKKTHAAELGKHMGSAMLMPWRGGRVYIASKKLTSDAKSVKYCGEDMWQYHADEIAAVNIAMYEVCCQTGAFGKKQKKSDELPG",
  "assay": "cell_activity; PAM TTTG; on-target",
  "settings": "tags: NLS",
  "data": [
    {"binder": "B1", "values": [
      {"measurement": "activity", "result": 75.7, "unit": "%"}
    ]}
  ]
}
